Measurements as given in IntAct's records for PubMed 22643122.

B1: Mitogen-activated protein kinase 4 (Arabidopsis thaliana (Mouse-ear cress)), Q39024 (parent)
chain: MSAESCFGSSGDQSSSKGVATHGGSYVQYNVYGNLFEVSRKYVPPLRPIGRGAYGIVCAATNSETGEEVAIKKIGNAFDNIIDAKRTLREIKLLKHMDHENVIAVKDIIKPPQRENFNDVYIVYELMDTDLHQIIRSNQPLTDDHCRFFLYQLLRGLKYVHSANVLHRDLKPSNLLLNANCDLKLGDFGLARTKSETDFMTEYVVTRWYRAPELLLNCSEYTAAIDIWSVGCILGETMTREPLFPGKDYVHQLRLITELIGSPDDSSLGFLRSDNARRYVRQLPQYPRQNFAARFPNMSAGAVDLLEKMLVFDPSRRITVDEALCHPYLAPLHDINEEPVCVRPFNFDFEQPTLTEENIKELIYRETVKFNPQDSV
partner: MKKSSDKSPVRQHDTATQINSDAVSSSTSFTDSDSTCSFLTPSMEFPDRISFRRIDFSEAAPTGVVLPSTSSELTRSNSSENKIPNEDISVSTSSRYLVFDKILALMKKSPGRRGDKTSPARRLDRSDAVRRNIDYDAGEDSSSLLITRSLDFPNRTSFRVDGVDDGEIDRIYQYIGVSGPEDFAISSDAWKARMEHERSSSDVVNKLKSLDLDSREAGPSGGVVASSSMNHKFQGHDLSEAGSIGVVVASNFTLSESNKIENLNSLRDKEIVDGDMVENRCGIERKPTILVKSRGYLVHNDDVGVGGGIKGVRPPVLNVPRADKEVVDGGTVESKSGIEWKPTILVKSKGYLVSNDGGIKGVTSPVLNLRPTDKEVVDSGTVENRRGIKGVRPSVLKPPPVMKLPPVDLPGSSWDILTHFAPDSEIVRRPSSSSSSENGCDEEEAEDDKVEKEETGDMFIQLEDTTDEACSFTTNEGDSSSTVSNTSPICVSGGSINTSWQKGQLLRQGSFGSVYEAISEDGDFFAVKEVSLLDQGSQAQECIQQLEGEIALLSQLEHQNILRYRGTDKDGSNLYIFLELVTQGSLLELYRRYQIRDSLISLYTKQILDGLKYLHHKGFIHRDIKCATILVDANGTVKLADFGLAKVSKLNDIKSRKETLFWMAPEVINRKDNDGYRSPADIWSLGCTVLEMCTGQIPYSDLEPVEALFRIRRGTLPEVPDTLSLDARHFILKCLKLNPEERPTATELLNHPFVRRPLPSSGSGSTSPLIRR

Variants of: B1
Conditions: with mp3k2_arath MEKK2, O81472

Variant	effect of a mutation on the interaction
G186E	disrupting interaction
